What all share (assay): ProteOn, one antigen concentration
The target of one test is T1, IFN-αC (human, UniProt P01566 24-189).
T1 construct: also called IFN-α10; alpha C

A further test has as its target T2, IFN-α4a (human, UniProt P05014 24-189).
T2 construct: also called IFN-αM1

The target in a further test is T3, IFN-αF (human, UniProt P01568 24-189).
T3 construct: also called IFN-α21; alpha F
T3 chain: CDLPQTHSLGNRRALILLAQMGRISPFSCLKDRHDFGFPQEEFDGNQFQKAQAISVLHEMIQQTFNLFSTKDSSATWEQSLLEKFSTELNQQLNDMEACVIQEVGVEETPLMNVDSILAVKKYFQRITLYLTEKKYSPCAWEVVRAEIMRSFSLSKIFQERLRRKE

The next test concerns the target T4, human IFN-ω (human, UniProt P05000 24-195).
T4 construct: also called interferon omega

In the next test the target is T5, IFN-αWA (human, UniProt P05015 24-189).
T5 construct: also called IFN-α16; alpha WA

The next test addresses T6, IFN-αG (human, UniProt P01569 24-189).
T6 construct: also called IFN-α5; alpha G

The target in the next test is T7, IFN-αJ1 (human, UniProt P01567 24-189).
T7 construct: also called IFN-α7; alpha J1

Changes are numbered by the printed parent chain.

Description for IFN-α4a: (§1) To increase the assay throughput, only one concentration of the individual antigen was used.
Description for IFN-αC: as §1
Description for IFN-αF: as §1
Description for IFN-αG: as §1
Description for IFN-αJ1: as §1
Description for IFN-αWA: as §1
Description for human IFN-ω: as §1

B1: IFWM3351 (antibody, V domains shown)
VH: EVQLVQSGAEVKKPGESLKISCKGSGYSFTSYWIGWVRQMPGKGLEWMGIIDPSDSDTAYSPSFQGQVTISADKSISTAYLQWSSLKASDTAMYYCARHPGLNWAPDFDYWGQGTLVTVSS
VL: DIQMTQSPSSLSASVGDRVTITCRASQSIDGALNWYQQKPGKAPKLLIYFASSLQSGVPSRFSGSGSGTDFTLTISSLQPEDFATYYCQQSFDFPLTFGQGTKVEIK
notes: VH IFWH624, VL IFWL1010; converted mAb; also called IFWB3086
As a reminder, the Kd is a measure of binding affinity in units of concentration. Take B1: the Kd stood at 0.048 nM with IFN-αC; 0.113 nM with IFN-α4a; 0.053 nM with IFN-αF; 0.004 nM with human IFN-ω; 0.033 nM with IFN-αWA; 0.015 nM with IFN-αG. Moreover, in the test with IFN-αJ1, the Kd was found to be 0.14 nM.

B2: IFWM3329 (antibody, V domains shown)
VH: B1 VH with A59R
VL: DIQMTQSPSSLSASVGDRVTITCRASQSIRNNNLNWYQQKPGKAPKLLIHWASSLQSGVPSRFSGSGSGTDFTLTISSLQPEDFATYYCQQGYDTPFTFGQGTKVEIK
notes: VH IFWH591, VL IFWL1067; converted mAb; also called IFWB3064
On to B2, for which the equilibrium dissociation constant (Kd) in the test with IFN-αC was found to be 0.05 nM; with IFN-α4a it was 0.258 nM; with IFN-αF, 0.051 nM; with human IFN-ω, 0.059 nM; in the test with IFN-αWA it was 0.173 nM; with IFN-αG, 0.061 nM. In the test with IFN-αJ1, this molecule registered a Kd of 0.166 nM.

B3: IFWM3358 (antibody, V domains shown)
VH: B1 VH
VL: B1 VL with D30T, A32F, F50A, F92H
notes: VH IFWH624, VL IFWL1041; converted mAb; also called IFWB3093
With B3, the Kd was found to be 0.054 nM in the test with IFN-αC; 0.319 nM with IFN-α4a; 0.047 nM with IFN-αF; 0.018 nM in the test with human IFN-ω; 0.123 nM with IFN-αWA; 0.048 nM with IFN-αG. The molecule also registered a Kd with IFN-αJ1 of 0.223 nM.

B4: IFWM3334 (antibody, V domains shown)
VH: B1 VH with A59R
VL: B2 VL with N33S, H50Y, W51A, G92D, D94N, T95W, F97L
notes: VH IFWH591, VL IFWL1082; converted mAb; also called IFWB3069
As to B4, the Kd came to 0.62 nM with IFN-αC; 0.744 nM with IFN-α4a; 5.21 nM with IFN-αF; 0.345 nM with human IFN-ω; 0.517 nM in the test with IFN-αWA; 0.941 nM with IFN-αG. In the test with IFN-αJ1, the Kd was 2.4 nM.

B5: IFWM3332 (antibody, V domains shown)
VH: B1 VH with A59R
VL: B2 VL with R30A, N32T, G92W, T95N, F97L
notes: VH IFWH591, VL IFWL1074; converted mAb; also called IFWB3067
Take B5: the Kd with IFN-αC amounted to 0.031 nM; with IFN-α4a, 0.139 nM; with IFN-αF it was 0.054 nM; in the test with human IFN-ω, 0.034 nM; with IFN-αWA, 0.076 nM; with IFN-αG it was 0.05 nM. Moreover, the Kd with IFN-αJ1 amounted to 0.135 nM.

B6: IFWM3338 (antibody, V domains shown)
VH: B1 VH with A59R
VL: B2 VL with N32T
notes: VH IFWH591, VL IFWL1091; converted mAb; also called IFWB3073
As for B6, the Kd in the test with IFN-αC worked out at 0.046 nM; in the test with IFN-α4a, 0.319 nM; in the test with IFN-αF, 0.064 nM; with human IFN-ω, 0.057 nM; with IFN-αWA, 0.2 nM; in the test with IFN-αG it was 0.046 nM. In the test with IFN-αJ1, this molecule had a Kd of 0.245 nM.

B7: IFWM3333 (antibody, V domains shown)
VH: B1 VH with A59R
VL: B2 VL with R30D, H50Y, W51A, T95W, F97L
notes: VH IFWH591, VL IFWL1076; converted mAb; also called IFWB3068
Turning to B7, the Kd in the test with IFN-αC worked out at 0.065 nM; in the test with IFN-α4a, 0.477 nM; in the test with IFN-αF, 0.089 nM; with human IFN-ω, 0.053 nM; with IFN-αWA, 0.258 nM; in the test with IFN-αG, 0.077 nM. The Kd with IFN-αJ1 turned out to be 0.607 nM.

B8: IFWM3360 (antibody, V domains shown)
VH: B1 VH
VL: B1 VL with S91A, F92Y
notes: VH IFWH624, VL IFWL1048; converted mAb; also called IFWB3095
Turning to B8, the Kd in the test with IFN-αC was found to be 0.056 nM; with IFN-α4a it was 0.233 nM; with IFN-αF, 0.049 nM; with human IFN-ω it was 0.025 nM; with IFN-αWA, 0.061 nM; in the test with IFN-αG, 0.043 nM. The Kd with IFN-αJ1 came to 0.174 nM.

B9: IFWM3331 (antibody, V domains shown)
VH: B1 VH with A59R
VL: B2 VL with R30D, N32S, N33Y, H50Y, W51G, Y93W, T95W, F97L
notes: VH IFWH591, VL IFWL1073; converted mAb; also called IFWB3066
On to B9, for which the Kd with IFN-αC worked out at 0.012 nM; with IFN-α4a, 0.085 nM; with IFN-αF, 0.013 nM; with human IFN-ω, 0.015 nM; with IFN-αWA, 0.026 nM; with IFN-αG, 0.015 nM. This molecule showed a Kd with IFN-αJ1 of 0.072 nM.

B10: IFWM3355 (antibody, V domains shown)
VH: B1 VH
VL: B1 VL with D30N, G31E, A32F, F92Y, D93S, F94T
notes: VH IFWH624, VL IFWL1022; converted mAb; also called IFWB3090
Take B10: the Kd came to 0.055 nM with IFN-αC; 0.122 nM in the test with IFN-α4a; 0.052 nM with IFN-αF; 0.026 nM with human IFN-ω; 0.041 nM in the test with IFN-αWA; 0.06 nM with IFN-αG. This molecule registered a dissociation constant Kd in the test with IFN-αJ1 of 0.079 nM.

B11: IFWM3361 (antibody, V domains shown)
VH: B1 VH
VL: B1 VL with D30A, G31D, A32F, F92H, D93S
notes: VH IFWH624, VL IFWL1051; converted mAb; also called IFWB3096
For the molecule B11, the Kd in the test with IFN-αC was determined as 0.101 nM; with IFN-α4a it was 0.622 nM; in the test with IFN-αF, 0.135 nM; with human IFN-ω it was 0.03 nM; with IFN-αWA it was 0.098 nM; with IFN-αG, 0.066 nM. In the test with IFN-αJ1, this molecule came in with a Kd of 0.388 nM.

B12: IFWM3354 (antibody, V domains shown)
VH: B1 VH
VL: B1 VL with D30T, G31S, A32S, F94L
notes: VH IFWH624, VL IFWL1017; converted mAb; also called IFWB3089
Turning to B12, the Kd amounted to 0.043 nM with IFN-αC; 0.123 nM with IFN-α4a; 0.032 nM with IFN-αF; 0.017 nM with human IFN-ω; 0.052 nM in the test with IFN-αWA; 0.043 nM in the test with IFN-αG. In the test with IFN-αJ1, this molecule gave a Kd of 0.098 nM.

B13: IFWM3357 (antibody, V domains shown)
VH: B1 VH
VL: B1 VL with D30S, G31E, A32Y, F92H, D93S, F94L, L96I
notes: VH IFWH624, VL IFWL1038; converted mAb; also called IFWB3092
Turning to B13, the Kd was determined as 0.023 nM in the test with IFN-αC; 0.17 nM with IFN-α4a; 0.039 nM with IFN-αF; 0.004 nM with human IFN-ω; 0.037 nM in the test with IFN-αWA; 0.014 nM with IFN-αG. The same molecule came in with a Kd with IFN-αJ1 of 0.13 nM.

B14: IFWM3353 (antibody, V domains shown)
VH: B1 VH
VL: B1 VL with G31R
notes: VH IFWH624, VL IFWL1014; converted mAb; also called IFWB3088
Consider B14, for which the Kd with IFN-αC was 0.054 nM; in the test with IFN-α4a, 0.11 nM; with IFN-αF, 0.055 nM; in the test with human IFN-ω, 0.006 nM; in the test with IFN-αWA, 0.031 nM; with IFN-αG it was 0.016 nM. This molecule also yielded a Kd in the test with IFN-αJ1 of 0.095 nM.

B15: IFWM3359 (antibody, V domains shown)
VH: B1 VH
VL: B1 VL with D30N, A32V, F92H
notes: VH IFWH624, VL IFWL1047; converted mAb; also called IFWB3094
Take B15: the Kd came out at 0.041 nM with IFN-αC; 0.147 nM with IFN-α4a; 0.053 nM with IFN-αF; 0.021 nM in the test with human IFN-ω; 0.051 nM with IFN-αWA; 0.04 nM with IFN-αG. This molecule also yielded a Kd with IFN-αJ1 of 0.136 nM.

B16: IFWM3336 (antibody, V domains shown)
VH: B1 VH with A59R
VL: B2 VL with N33Y, H50Y, W51A, F97L
notes: VH IFWH591, VL IFWL1085; converted mAb; also called IFWB3071
For B16, the Kd with IFN-αC is 0.047 nM; with IFN-α4a it was 0.235 nM; in the test with IFN-αF, 0.061 nM; with human IFN-ω it was 0.019 nM; with IFN-αWA it was 0.105 nM; with IFN-αG, 0.051 nM. Also, in the test with IFN-αJ1, binding was put at a Kd of 0.11 nM.

B17: IFWM3337 (antibody, V domains shown)
VH: B1 VH with A59R
VL: B2 VL with R30S, N32S, G92W, T95H, F97L
notes: VH IFWH591, VL IFWL1087; converted mAb; also called IFWB3072
As to B17, the Kd with IFN-αC came out at 0.017 nM; with IFN-α4a it was 0.091 nM; in the test with IFN-αF, 0.016 nM; with human IFN-ω, 0.02 nM; in the test with IFN-αWA, 0.037 nM; with IFN-αG it was 0.034 nM. In addition, in the test with IFN-αJ1, the Kd turned out to be 0.071 nM.

B18: IFWM3327 (antibody, V domains shown)
VH: B1 VH with A59R
VL: B2 VL with R30A
notes: VH IFWH591, VL IFWL1063; converted mAb; also called IFWB3062
As for B18, the Kd in the test with IFN-αC worked out at 0.034 nM; in the test with IFN-α4a it was 0.164 nM; with IFN-αF it was 0.035 nM; with human IFN-ω, 0.039 nM; with IFN-αWA, 0.106 nM; with IFN-αG it was 0.035 nM. Moreover, binding in the test with IFN-αJ1 was characterised by a dissociation constant (Kd) of 0.113 nM.

B19: IFWM3352 (antibody, V domains shown)
VH: B1 VH
VL: B1 VL with D30N, G31N, A32F, D93N, F94L, L96I
notes: VH IFWH624, VL IFWL1013; converted mAb; also called IFWB3087
For B19, the Kd stood at 0.121 nM in the test with IFN-αC; 0.267 nM with IFN-α4a; 0.152 nM in the test with IFN-αF; 0.06 nM with human IFN-ω; 0.087 nM with IFN-αWA; 0.09 nM in the test with IFN-αG. The same molecule gave a dissociation constant Kd with IFN-αJ1 of 0.287 nM.

B20: IFWM3364 (antibody, V domains shown)
VH: B1 VH
VL: B1 VL with D30R, G31N, A32S, Y49K, F50W, S91L, F92Y, F94W
notes: VH IFWH624, VL IFWL1060; converted mAb; also called IFWB3099
For B20, the Kd with IFN-αC was determined as 0.093 nM; in the test with IFN-α4a, 0.269 nM; in the test with IFN-αF it was 0.109 nM; in the test with human IFN-ω, 0.013 nM; with IFN-αWA, 0.118 nM; with IFN-αG it was 0.08 nM. This molecule returned a Kd with IFN-αJ1 of 0.254 nM.
